In PMC10265101 (2023):

Tests used:
CD3ε = assay: SPR
[1] = biological target: T1, recombinant PD-L1 protein (#10084-HNAH, Sino Biological) (UniProt Q9NZQ7 19-290); assay: SPR; heterogeneous ligand fit, KD1
[2] = biological target: T1, recombinant PD-L1 protein (#10084-HNAH, …); assay: SPR; heterogeneous ligand fit, KD2 (second site)

T1 sequence (Q9NZQ7 19-290): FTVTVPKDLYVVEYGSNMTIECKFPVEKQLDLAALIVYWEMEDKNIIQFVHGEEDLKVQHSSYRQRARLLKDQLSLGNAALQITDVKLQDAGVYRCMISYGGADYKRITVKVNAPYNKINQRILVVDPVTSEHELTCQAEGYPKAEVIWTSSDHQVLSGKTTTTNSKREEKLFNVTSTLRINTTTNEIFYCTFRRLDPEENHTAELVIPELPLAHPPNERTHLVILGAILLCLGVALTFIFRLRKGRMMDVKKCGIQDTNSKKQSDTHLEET

B1: recombinant Nb-BiTE (PD-L1/CD3ε Nb-BiTE) (bispecific antibody)
chain: HVQLVESGGGLVQPGGSLRLSCAASGFTFSSKAMSWVRQAPGKGLDWVSTINSGGGNTYYSDSVKGRFTISRDNAKNTLYLQLNSLKTEDTAMYYCSRCSDIYCGGQYTYRGQGTLVTVSSGGGGSGGGGSGGGGSEVQLVESGGGLVQPGGSLRLSCVASGFTFSSIGMSWVRQAPGKGLEWVSGLNPVGSHTGYADSVKGRFTISRDNAKNTLHLQLNSLKTEDTAMYYCQRGYTCSGDLCERGQGTQVTVSSGGGGSGGGGSGGGGSHVQLVESGGGSVQAGGSLRLSCTVSGVIFKNEYMGWFRQAPGKEREGVAAASPGGTITYYGDSVKGRFTISRDNAKNTVYLQMNRLKPEDTAMYYCALDPSTTSWSIIRHGPSLWRYSGRGTQVTVSS
Q: What does the source list for B1?
A: Kd (CD3ε): 2.48 nM; Kd [1]: 9.86 nM; Kd [2]: 0.00205 nM
